Biological target: MBP-Hsmar1 transposase (human)
Assay: SEC; Superdex 200 10/300 GL, GF buffer (25 mM HEPES pH 7.5, 200 mM NaCl, 2 mM DTT, 5 mM EDTA, 0.1% Triton X-100 reduced); ^MBPHsmar1 after increasing Factor Xa proteolysis (1 ug protease per 50 ug fusion protein)

stoichiometry N: 2
Substance: MBP-Hsmar1 transposase (enzyme)

— publication PMC5714172
